{
  "source": "paper PMC3591176",
  "molecular_target": "Bbil-TX, basic PLA2 from Bothriopsis bilineata snake venom (Bothriopsis bilineata)",
  "data": [
    {"substance": "crotapotin isoform F3 from Crotalus durissus cascavella rattlesnake venom (natural protein)", "values": [
      {"measurement": "inhibition of the PLA2 activity of Bbil-TX (substrate 4-nitro-3-octanoyloxy-benzoic acid) after preincubation of enzyme and inhibitor for 30 min at 37°C", "result": 50, "unit": "%"}
    ]}
  ]
}
